Laboratory results published in article PMC9884274.

Biological target: WT Atezolizumab scFv-His6, purified
Experiment: mass photometry; Refeyn TwoMP, room temperature, 1X PBS; PD-L1 at 7.4, 18.5 and 74 nM; each scFv at 100 nM

stoichiometry N: 2
Substance: WT Atezolizumab scFv-His6, purified
